How the values were obtained:
Assay in all cases: BLI
[1] = molecular target: E. coli LamB (E. coli, UniProt P02943 26-446)
[2] = molecular target: E. coli LamB A384S (E. coli, UniProt P02943 26-446, A384S)
[3] = molecular target: Shigella sonnei 3070 LamB (Shigella sonnei 3070, UniProt Q3YUU9 26-446)

B1: gpJ713 (C-terminal truncation of bacteriophage lambda gpJ, starting from residue 713) (domain or fragment)
chain: APAAPSRIELTPGYFQITATPHLAVYDPTVQFEFWFSEKQIADIRQVETSTRYLGTALYWIAASINIKPGHDYYFYIRSVNTVGKSAFVEAVGRASDDAEGYLDFFKGKITESHLGKELLEKVELTEDNASRLEEFSKEWKDASDKWNAMWAVKIEQTKDGKHYVAGIGLSMEDTEEGKLSQFLVAANRIAFIDPANGNETPMFVAQGNQIFMNDVFLKRLTAPTITSGGNPPAFSLTPDGKLTAKNADISGSVNANSGTLSNVTIAENCTINGTLRAEKIVGDIVKAASAAFPRQRESSVDWPSGTRTVTVTDDHPFDRQIVVLPLTFRGSKRTVSGRTTYSMCYLKVLMNGAVIYDGAANEAVQVFSRIVDMPAGRGNVILTFTLTSTRHSADIPPYTFASDVQVMVIKKQALGISVV
koff [1]: 0.00427 s⁻¹ | koff [2]: < 1e-07 s⁻¹ | koff [3]: < 1e-07 s⁻¹

From article PMC11101478 (2024)
